US20240116985A1 (published 2024)
Values belong to the binder of their own block, whether it stands above or below them. Starred links: 1 amine or outer side, 2 acyl side, 3 side chain; linkers in the order of their positions; H or OH if unused. Positions of bridges follow the written chain, without caps; N, C: chain ends. Non-standard residues stand in square brackets, D forms with d. Primed or numbered codes have the meaning given here. B5(4) = 2,2-bis(4-pentenyl)glycine = 2-amino-2-(pent-4-en-1-yl)hept-6-enoic acid (stitching residue), C=CCCCC(CCCC=C)(N[*:1])C(=O)[*:2]; B5(21) = 2-amino-2-(pent-4-en-1-yl)hept-6-enoic acid, bis(4-pentenyl)glycine (stitching residue), C=CCCCC(CCCC=C)(N[*:1])C(=O)[*:2]; B5(9) = 2-amino-2-(pent-4-en-1-yl)hept-6-enoic acid (2,2-bis(4-pentenyl)glycine), C=CCCCC(CCCC=C)(N[*:1])C(=O)[*:2]; B5(14) = 2-amino-2-(pent-4-en-1-yl)hept-6-enoic acid (bis-pentenylglycine), C=CCCCC(CCCC=C)(N[*:1])C(=O)[*:2]; (NHCyBu)AsnR = N4-cyclobutyl-L-asparagine, O=C(C[C@H](N[*:1])C(=O)[*:2])NC1CCC1; (NHCyPr)AsnR = N4-cyclopropyl-L-asparagine, O=C(C[C@H](N[*:1])C(=O)[*:2])NC1CC1; 23FF = 2,3-difluoro-L-phenylalanine, O=C([C@H](Cc1cccc(F)c1F)N[*:1])[*:2]; WCHO = 1-formyl-L-tryptophan, O=Cn1cc(C[C@H](N[*:1])C(=O)[*:2])c2ccccc21; (NHMe)AsnR = N4-methyl-L-asparagine, CNC(=O)C[C@H](N[*:1])C(=O)[*:2]; TOMe = O-methyl-L-threonine, CO[C@H](C)[C@H](N[*:1])C(=O)[*:2]; Phe(2-CONH2) = NC(=O)c1ccccc1C[C@H](N)C(=O)O; Phe(3,5-F2) = N[C@@H](Cc1cc(F)cc(F)c1)C(=O)O; Ala(2-furyl) = N[C@@H](Cc1ccco1)C(=O)O; His(τ-Me) = Cn1cnc(C[C@H](N)C(=O)O)c1; Bta = N[C@@H](Cc1csc2ccccc12)C(=O)O; αAllylPro = C=CC[C@@]1(C(=O)O)CCCN1; S8 = C=CCCCCCC[C@](C)(N)C(=O)O

Experiments:
[1] = molecular target: T1, full-length beta-Catenin (Uniprot ID P35222) (Homo sapiens (Human), UniProt P35222 1-781); test: fluorescence polarization competition vs 5FAM-TCF4(10-53) on full-length beta-catenin
T1 construct: also called bCat; B-Catenin
T1 sequence: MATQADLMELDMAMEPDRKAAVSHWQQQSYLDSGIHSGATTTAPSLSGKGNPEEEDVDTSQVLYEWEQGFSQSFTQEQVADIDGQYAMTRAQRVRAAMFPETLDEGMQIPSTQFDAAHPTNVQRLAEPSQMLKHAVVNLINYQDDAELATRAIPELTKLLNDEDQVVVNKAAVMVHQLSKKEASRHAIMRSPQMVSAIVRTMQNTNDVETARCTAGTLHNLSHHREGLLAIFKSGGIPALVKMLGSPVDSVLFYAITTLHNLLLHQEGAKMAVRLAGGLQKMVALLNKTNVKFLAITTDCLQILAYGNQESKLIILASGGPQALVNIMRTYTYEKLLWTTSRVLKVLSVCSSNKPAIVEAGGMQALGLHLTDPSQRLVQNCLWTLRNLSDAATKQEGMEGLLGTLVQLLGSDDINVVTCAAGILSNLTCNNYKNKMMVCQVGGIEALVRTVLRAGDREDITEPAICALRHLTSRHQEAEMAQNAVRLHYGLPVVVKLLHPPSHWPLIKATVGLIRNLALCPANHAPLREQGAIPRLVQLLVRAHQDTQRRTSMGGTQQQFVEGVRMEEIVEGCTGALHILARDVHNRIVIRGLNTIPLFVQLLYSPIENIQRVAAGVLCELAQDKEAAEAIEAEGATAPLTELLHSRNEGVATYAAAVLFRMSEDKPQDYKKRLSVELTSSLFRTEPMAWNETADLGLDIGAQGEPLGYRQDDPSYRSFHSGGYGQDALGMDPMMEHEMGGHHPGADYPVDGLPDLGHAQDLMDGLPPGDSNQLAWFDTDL
Procedure: (§1) The plate was incubated protected from light for 60 minutes at 20° C. prior to read. Reads were performed on a CLARIOstar plate reader (BMG Labtech) in duplicate, and data were fitted to a 1:1 binding model with hill slope using an in-house script. All provided concentrations are final concentrations.

[2] = molecular target: T2, full-length beta-Catenin (Uniprot ID P35222) (Homo sapiens (Human), UniProt P35222 1-781); test: fluorescence polarization competition; displacement of 5FAM-TCF4(10-53) from full-length beta-catenin
T2 construct: also called bCat; B-Catenin
T2 sequence: T1 sequence
Procedure: as §1

[3] = molecular target: T3, full-length beta-Catenin (Uniprot ID P35222) (Homo sapiens (Human), UniProt P35222 1-781); test: fluorescence polarization competition; 10 nM full-length beta-catenin, competitor 10 nM 5FAM-TCF4(10-53)
T3 construct: also called bCat; B-Catenin
T3 sequence: T1 sequence
Procedure: as §1

B1: I-328 (peptide)
peptide: Ac-[αAllylPro]DA[B5(4)]DDAA[Ala(2-furyl)]V[S8]FWQ-NH2
modifications: staple 1-4, 4-11; not fully specified; printed as Ac-PL3-Asp-Ala-B5-Asp-Asp-Ala-Ala-2FurA-Val-S8-Phe-Trp-Gln-NH2
notes: Stapled peptide composition; also called Ac-PL3-Asp-Ala-B5-Asp-Asp-Ala-Ala-2FurA-Val-S8-Phe-Trp-Gln-NH2
IC50 [1]: 1.91 µM

B3: I-332 (peptide)
peptide: Ac-[αAllylPro]DA[B5(14)]DDAAHV[S8]FWQ-NH2
modifications: staple 1-4, 4-11; not fully specified (residue 9)
notes: Stapled peptide composition; also called Ac-PL3-Asp-Ala-B5-Asp-Asp-Ala-Ala-3meH-Val-S8-Phe-Trp-Gln-NH2
IC50 [1]: 5 µM

B9: I-336 (peptide)
peptide: Ac-[αAllylPro]DA[B5(4)]DDAAFV[S8][Phe(2-CONH2)][Bta]Q-NH2
modifications: staple 1-4, 4-11
notes: Stapled peptide composition; also called Ac-PL3-Asp-Ala-B5-Asp-Asp-Ala-Ala-Phe-Val-S8-2CBMF-BztA-Gln-NH2
IC50 [1]: 0.153 µM

B11: I-341 (peptide)
peptide: Ac-[αAllylPro]DA[B5(9)]DDAAFV[S8]Y[Bta]Q-NH2
modifications: staple 1-4, 4-11
notes: Stapled peptide composition; also called Ac-PL3-Asp-Ala-B5-Asp-Asp-Ala-Ala-Phe-Val-S8-Tyr-BztA-Gln-NH2
IC50 [1]: 2 µM

B13: I-327 (peptide)
peptide: Ac-[αAllylPro]DA[B5(4)]DDAA[Ala(2-furyl)]V[S8]FWQ-NH2
modifications: staple 1-4, 4-11; not fully specified; printed as Ac-PL3-Asp-Ala-B5-Asp-Asp-Ala-Ala-2FurA-Val-S8-Phe-Trp-Gln-NH2
notes: as for B1
IC50 [1]: 4.72 µM

B14: I-329 (peptide)
peptide: Ac-[αAllylPro]DA[B5(4)]DDAA[His(τ-Me)]V[S8]FWQ-NH2
modifications: staple 1-4, 4-11; not fully specified; printed as Ac-PL3-Asp-Ala-B5-Asp-Asp-Ala-Ala-1meH-Val-S8-Phe-Trp-Gln-NH2
notes: Stapled peptide composition; also called Ac-PL3-Asp-Ala-B5-Asp-Asp-Ala-Ala-1meH-Val-S8-Phe-Trp-Gln-NH2
IC50 [1]: 5 µM

B16: I-333 (peptide)
peptide: Ac-[αAllylPro]DA[B5(4)]DDAAFS[S8]F[WCHO]S-NH2
modifications: staple 1-4, 4-11
notes: Stapled peptide composition; also called Ac-PL3-Asp-Ala-B5-Asp-Asp-Ala-Ala-Phe-Ser-S8-Phe-WCHO-Ser-NH2
IC50 [1]: 2.76 µM

B18: I-330 (peptide)
peptide: Ac-[αAllylPro]DA[B5(4)]DDAA[His(τ-Me)]V[S8]FWQ-NH2
modifications: staple 1-4, 4-11
notes: as for B14
IC50 [1]: 5 µM

The next lines start with the values.

EC50 [2]: 5 µM
B2: I-539 (peptide)
peptide: Ac-[αAllylPro]DA[B5(21)][(NHCyBu)AsnR]DAAFV[S8]F[Bta]Q-NH2
modifications: staple 1-4, 4-11
notes: Stapled (stitched) peptide composition

EC50 [2]: 0.019 µM
B4: I-563 (peptide)
peptide: XDLXDDAAFNXFXQ
modifications: not fully specified; Ac-PL3-Asp-Leu-B5-Asp-Asp-Ala-Ala-Phe-Asn-S8-Phe-BztA-Gln-NH2; N-terminal acetyl, C-terminal amide; non-natural: PL3(1), B5(4), S8(11), BztA(13); staples PL3(1)-B5(4) and B5(4)-S8(11)

EC50 [2]: 5 µM
B5: I-540 (peptide)
peptide: Ac-[αAllylPro]DA[B5(21)][(NHMe)AsnR]DAAFV[S8]F[Bta]Q-NH2
modifications: staple 1-4, 4-11
notes: as for B2

EC50 [3]: 1.91 µM
B6: I-391 (peptide)
peptide: Ac-[αAllylPro]DA[B5(9)]DEAA[23FF]V[S8]F[Bta]Q-NH2
modifications: staple 1-4, 4-11; also: later eluting HPLC isomer, E/Z not assigned
notes: Stapled peptide

EC50 [3]: 3.43 µM
B7: I-396 (peptide)
peptide: XDAXDHAAFVXFXQ
modifications: not fully specified; Ac-PL3-Asp-Ala-B5-Asp-His-Ala-Ala-Phe-Val-S8-3FF-BztA-Gln-NH2: N-terminal acetyl, C-terminal amide; non-natural PL3(1), B5(4), S8(11), 3FF(12), BztA(13); staples PL3-B5 and B5-S8
notes: Stapled peptide

EC50 [3]: 5 µM
B8: I-394 (peptide)
peptide: Ac-[αAllylPro]DA[B5(9)]DEAAFV[S8][Phe(3,5-F2)][Bta]Q-NH2
modifications: staple 1-4, 4-11
notes: Stapled peptide composition (olefin metathesis)

IC50 [1]: 0.0585 µM
B10: I-342 (peptide)
peptide: Ac-[αAllylPro]DA[B5(9)]DDAAFT[S8]F[Bta]Q-NH2
modifications: staple 1-4, 4-11
notes: Stapled peptide composition; also called Ac-PL3-Asp-Ala-B5-Asp-Asp-Ala-Ala-Phe-Thr-S8-Phe-BztA-Gln-NH2

EC50 [2]: 5 µM
B12: I-538 (peptide)
peptide: Ac-[αAllylPro]DA[B5(21)][(NHCyPr)AsnR]DAAFV[S8]F[Bta]Q-NH2
modifications: staple 1-4, 4-11
notes: as for B2

IC50 [1]: 5 µM
B15: I-353 (peptide)
peptide: XDAXDDAAAVXFWQ
modifications: not fully specified; N-terminal Ac; PL3 at 1; B5 at 4; S8 at 11; C-terminal NH2; stapled PL3-B5 and B5-S8 (olefin metathesis)
notes: Stapled peptide composition; also called Ac-PL3-Asp-Ala-B5-Asp-Asp-Ala-Ala-Ala-Val-S8-Phe-Trp-Gln-NH2

EC50 [2]: 0.18 µM
B17: I-541 (peptide)
peptide: Ac-[αAllylPro]D[TOMe][B5(21)]DEAAFQ[S8]F[Bta]Q-NH2
modifications: staple 1-4, 4-11
